Data reported in US20140322736.

How the values were obtained:
[1] = system: human mutant recombinant prethrombin-2
[2] = system: mouse mutant recombinant prethrombin-2

Row | Substance | protease activity (fluorescence of the cleaved fluorogenic substrate (p-tosyl-Gly-Pro-Arg)2-rhodamine 110 over time) [1] | protease activity (fluorescence of the cleaved fluorogenic substrate (p-tosyl-Gly-Pro-Arg)2-rhodamine 110 over time) [2] | cleavage of the proenzyme [2]
1 | wild type human α-thrombin (Sigma Aldrich) | in the presence of WT human α-thrombin, the protease activity increased considerably with time (FIG. 4, curves a, b), compared to the samples where only WT α-thrombin was added | in the presence of WT human α-thrombin, the protease activity increased considerably with time (FIG. 4, curves a, b), compared to the samples where only WT α-thrombin was added | 
2 | α-thrombin immobilized on agarose (Thrombin CleanCleave Kit, Sigma-Aldrich) |  |  | Mouse mutant prethrombin-2 was cleaved using Thrombin CleanCleave™ Kit
